Entries after “also recorded” stand apart in the source; their conditions may differ.
Columns and labels:
hNav1.7 channels = hNav1.7 channels (Homo sapiens, UniProt Q15858, W1161R); assay: Patch-clamp whole-cell recordings in hNav1.7-HEK293 cells; format: cell-based
[1] = tested on: CFA-induced thermal hyperalgesia; assay: Hargreaves Model of Hyperalgesia in rats; format: in vivo, rat; conditions: for Percentage of maximum possible effect (% MPE): 4 h (FIG. 27B)
Procedure: Hargreaves Model of Hyperalgesia in rats. Rats aged 4-6 weeks (weight range, 180-220 g) were used for intraplantar (ipl) administrations of various antibodies and evaluation of their efficacy in the Hargreaves model of inflammatory pain. Chronic inflammatory pain is induced by injecting a low volume (50 μl) of complete Freund's adjuvant (CFA; heat-killed M. tuberculosis—Sigma, St. Louis, Mo.—suspended in oil:saline 2:1 emulsion) into the right hind paw. The paw withdrawal latency in response to the application of a radiant stimulus onto the plantar surface of both right and left paw was measured using the plantar Analgesia Meter equipment for paw stimulation (IITC Life Science, Woodland Hills, Calif.). The time taken by the animal to respond by licking or flicking its paw is interpreted as positive response (paw withdrawal latency). After 48 h of the CFA injection, the baseline for latency paw withdrawal was measured and the mAbs tested. […] A cut-off time (20 sec) is established at the end of which the heat source shuts off automatically to avoid tissue damage. Animals were kept (randomized) one per cage and staff performing pain experiments are blinded to the content of injectable compounds. Percentage of maximum possible effect (% MPE) was calculated using the formula % MPE=(Test Latency−Baseline Latency)×100/(Cut-off−Baseline Latency).

[2] = tested on: OD1-evoked Nav1.7-mediated spontaneous pain behaviours; format: in vivo, mouse; conditions: 50 μg VHH
FC5DIE3IR = molecular target: T1, FC5DIE3IR (Homo sapiens, UniProt Q15858); assay: Surface Plasmon Resonance for VHH antibodies, immobilized FC5DIE3IR; format: binding; conditions: SPR
T1 construct: The supernatant was collected and loaded on a 5 ml MabSelect™ SuRe™ column; made in house; host or cells: CHO-3E7 (transient, pTT5 vector), purified from supernatant
Procedure: (§1) Surface Plasmon Resonance for VHH antibodies. For SPR experiments, IMAC-purified VHHs DI-D, DI-4, DI-16, DI-28 and DI-48 were passed through a Superdex 75 (GE Healthcare) column for SEC purification in HBS-EP+buffer (10 mM HEPES, pH 7.4, containing 150 mM NaCl, 3 mM EDTA and 0.05% P20), connected to an AKTAPurifier (GE Healthcare) at a flow rate of 1 ml/min. Monomeric VHH fractions were collected and protein concentration determined by measuring A280 measurement. Using a Biacore T200 instrument (GE Healthcare), approximately 500-1000 RUs of FC5DIE3IR, FC5 and an irrelevant VHH (2A3-H4) were immobilized on a CM5 Series S sensor chip (GE Healthcare) at pH 4.0 using standard amine coupling according to the manufacturer's instructions (GE Healthcare). […] Surfaces were regenerated by washing with a 120 s pulse of 10 mM glycine pH 1.5. Data were analyzed with Biacore T200 Software v 3.0 and affinities determined using steady state binding or a 1:1 binding model.

FC5 = assay: Surface Plasmon Resonance for VHH antibodies, immobilized FC5; format: binding; conditions: SPR; 25 C
Procedure: as §1

2A3-H4 = assay: Surface Plasmon Resonance for VHH antibodies, immobilized irrelevant VHH 2A3-H4; format: binding; conditions: SPR; 25 C
Procedure: as §1

VHH FC5 = assay: Phage ELISA on VHH FC5; format: binding
Procedure: FIG. 25A Phages were rescued from individual colonies, selected from the fourth round of panning and grown overnight at 37° C. Wells of a Nunc microtiter plate were coated with FC5DIE3IR and FC5 proteins at 5 μg/ml in PBS. After blocking, 100 μl of phage supernatants (from clones A-H) were added to the respective wells followed by incubation for 1 h at room temperature and addition of anti-M13-HRP conjugate. Binding was detected with TMB substrate and A450 was measured using an ELISA plate reader. As shown, six positive clones (DI-A, DI-B, DI-C, DI-D, DI-E and DI-H), having a signal of at least 3× background, were identified by phage-ELISA.
Additional rounds (up to 3) of panning were performed by coating the ELISA plate with the same proteins and using the amplified phages after each round of panning as described above. After four rounds of panning, 77 randomly picked colonies were grown and subjected to monoclonal phage ELISA screening as described previously (Arbabi-Ghahroudi et al., 2009) except that 5 μg/ml of FC5DIE3IR and FC5 VHH (the negative control) were coated onto a microtiter plate. All positive clones specifically binding to FC5DIE3IR were sequenced and unique VHH sequences were selected for sub-cloning, large-scale expression, and purification. A total of 6 VHHs specific to FC5DIE3IR were isolated. […]

[3] = tested on: FC5DIIIDIR (extracellular loop DIII of the hNav1.7 channels grafted to FC5 scaffold); assay: Phage ELISA on FC5DIIIDIR; format: binding, human
[4] = −20 mV, after antibody application (1 μM)

Chain of FC5 (as listed by the source): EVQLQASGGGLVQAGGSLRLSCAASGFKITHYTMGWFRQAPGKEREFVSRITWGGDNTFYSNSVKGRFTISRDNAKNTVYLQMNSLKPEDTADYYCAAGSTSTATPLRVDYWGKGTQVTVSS
Chain of VHH FC5 (as listed by the source): as above

B1: DI-D: anti-hNav1.7 VHH from phage-displayed LAC-M naïve library; SEQ ID NO: 38 (protein)
VHH: QVKLEESGGGLVQPGGSLKLSCVASGFAFSSAPMDWVRKAPGKDVEWLSTIESDQDHTIYYANSVKGRFTISRDDVQNILYLQMNDLKIEDTATYYCQKRGEKKTRGQGTQVTVSS
modifications: DI-D
**Q.** What does the source list for B1?
**A.** Reduction currents (%) (hNav1.7 channels; 1 μM): 11.7%±5.8; Time constant of the block of the hNav1.7 currents (effect onset) (hNav1.7 channels; 1 μM): 113 ± 11 s; Voltage-dependence of activation (shift V1/2 activation) (hNav1.7 channels; 1 μM): −6.1±1.0 mV; Voltage-dependence of the steady-state fast inactivation (shift V1/2 inactivation) (hNav1.7 channels; 1 μM): −6.8±1.5 mV; hNav1.7 current remaining, % of control (hNav1.7 channels; 1 μM, 500 sec recording (FIG. 26B)): approx. 91%; Onset time of the effect (exponential fit of the current decay, T) (hNav1.7 channels; 1 μM, single time-course recording of the figure): 150 s; Reduction currents (%) (hNav1.7 channels; 2 μM): 15.0%±6.9; Time constant of the block of the hNav1.7 currents (effect onset) (hNav1.7 channels; 2 μM): 200 ± 45 s; Reduction currents (%) (hNav1.7 channels; 3 μM): 24.1%±5.6; Effect on hNav1.7 currents (in words) (hNav1.7 channels; example recordings, 1-3 μM): reduced hNav1.7 current in a dose dependent manner; Efficacy (degree of maximum inhibition) (hNav1.7 channels; resting/closed state): 27.4±5. %; Fast inactivation (time constant) (hNav1.7 channels; [4]): 1.29 ± 0.30 ms; Time-to-peak (hNav1.7 channels; [4]): 1.64 ± 0.37 ms; Latency paw withdrawal ([1]; 50 μg intraplantar, 4 h): 8.36 ± 0.53 s; Percentage of maximum possible effect (% MPE) ([1]; 50 μg intraplantar): 21.59%±4.05; Latency paw withdrawal ([1]; 100 μg intraplantar, 1 h): 13.35 ± 0.44 s; Latency paw withdrawal ([1]; 100 μg intraplantar, 2 h): 11.40 ± 0.69 s; Latency paw withdrawal ([1]; 100 μg intraplantar, 4 h): 11.78 ± 0.50 s; Percentage of maximum possible effect (% MPE) ([1]; 100 μg intraplantar): 45.19%±4.40; Effect on spontaneous pain behaviours evoked by OD1 (in words) [2]: reversed spontaneous pain behaviours; Time spent in pain behaviors (saline plus OD1 = 100%) ([2]; injected 60 minutes prior to OD1, 20 min after the injection): 44.33%±8.8; Binding to immobilized FC5DIE3IR (comment, in words) (FC5DIE3IR): clear binding; also recorded: binds specifically; Binding to immobilized FC5 (comment, in words) (FC5): trace amounts of binding; also recorded: Weak/residual binding; Binding to immobilized 2A3-H4 (comment, in words) (2A3-H4): No binding; Binding of the phage to VHH FC5 (in words) (VHH FC5): did not bind; Binding of the phage to FC5DIIIDIR (in words) [3]: did not bind
